The supplement of paper PMC7125110
± gives the standard error. Fewer inactive variants are shown than the library holds.

B1: glmS ribozyme (parent)
chain: AUAAAAGCGCCAGAACUACAGAAAUGUAGUUGACGAGGAGGAGGUUUAUCGAAUUUUCGGCGGAUGCCUCCAAA

Experiments:
Conditions in all cases: with glucosamine-6-phosphate
[1] = variants of: B1; assay: self-cleavage kobs at 40 uM GlcN6P; higher = faster cleavage; RNA array
Method in brief: (§1)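 E. coli RNA polymerase transcribed barcoded ribozyme variants in situ on sequenced MiSeq chips, which were tracked via a hybridised Cy3 probe at 37 °C. Tiles were imaged over ~14 h after glucosamine-6-phosphate (40 μM to 10 mM) in HEPES/KCl/Mg(OAc)2 buffer was flowed in. Normalised per-tile medians were fit to one- or two-exponential decays for kobs, and kcat and KM came from weighted Michaelis–Menten fits.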

[2] = variants of: B1; assay: self-cleavage kobs at 160 uM GlcN6P; higher = faster cleavage; RNA array
Method in brief: as §1

[3] = variants of: B1; assay: self-cleavage kobs at 640 uM GlcN6P; higher = faster cleavage; RNA array
Method in brief: as §1

[4] = variants of: B1; assay: self-cleavage kobs at 10000 uM GlcN6P; higher = faster cleavage; RNA array
Method in brief: as §1

[5] = variants of: B1; assay: self-cleavage kobs at 2500 uM GlcN6P; higher = faster cleavage; RNA array
Method in brief: as §1

Variant: C8U A15G
- self-cleavage kobs at 40 uM GlcN6P [1]: < 1e-05 s⁻¹
- self-cleavage kobs at 160 uM GlcN6P [2]: < 1e-05 s⁻¹
- self-cleavage kobs at 640 uM GlcN6P [3]: < 1e-05 s⁻¹
- self-cleavage kobs at 10000 uM GlcN6P [4]: < 1e-05 s⁻¹

Variant: A14U C34U
- self-cleavage kobs at 40 uM GlcN6P [1]: < 1e-05 s⁻¹
- self-cleavage kobs at 160 uM GlcN6P [2]: < 1e-05 s⁻¹
- self-cleavage kobs at 640 uM GlcN6P [3]: < 1e-05 s⁻¹
- self-cleavage kobs at 2500 uM GlcN6P [5]: < 1e-05 s⁻¹
- self-cleavage kobs at 10000 uM GlcN6P [4]: < 1e-05 s⁻¹

Variant: A6G C61G
- self-cleavage kobs at 40 uM GlcN6P [1]: < 1e-05 s⁻¹
- self-cleavage kobs at 160 uM GlcN6P [2]: < 1e-05 s⁻¹
- self-cleavage kobs at 640 uM GlcN6P [3]: < 1e-05 s⁻¹
- self-cleavage kobs at 2500 uM GlcN6P [5]: < 1e-05 s⁻¹
- self-cleavage kobs at 10000 uM GlcN6P [4]: < 1e-05 s⁻¹

Variant: C16G G51C U55A U65A
- self-cleavage kobs at 40 uM GlcN6P [1]: < 1e-05 s⁻¹
- self-cleavage kobs at 2500 uM GlcN6P [5]: < 1e-05 s⁻¹
- self-cleavage kobs at 10000 uM GlcN6P [4]: < 1e-05 s⁻¹

Variant: G32U U55G A64U
- self-cleavage kobs at 40 uM GlcN6P [1]: < 1e-05 s⁻¹

Variant: C16U G32C G40U C58U
- self-cleavage kobs at 40 uM GlcN6P [1]: < 1e-05 s⁻¹

Variant: G7A U56G
- self-cleavage kobs at 40 uM GlcN6P [1]: < 1e-05 s⁻¹
- self-cleavage kobs at 640 uM GlcN6P [3]: < 1e-05 s⁻¹

Variant: C10A A14U
- self-cleavage kobs at 40 uM GlcN6P [1]: < 1e-05 s⁻¹
- self-cleavage kobs at 640 uM GlcN6P [3]: < 1e-05 s⁻¹

Variant: A14G U54G
- self-cleavage kobs at 40 uM GlcN6P [1]: 0.00166 ± 0.00021 s⁻¹
- self-cleavage kobs at 160 uM GlcN6P [2]: 0.0021 ± 0.00047 s⁻¹
- self-cleavage kobs at 640 uM GlcN6P [3]: 0.0114 ± 0.003 s⁻¹
- self-cleavage kobs at 10000 uM GlcN6P [4]: 0.023 ± 0.0048 s⁻¹

Variant: G13C A52C
- self-cleavage kobs at 40 uM GlcN6P [1]: < 1e-05 s⁻¹
- self-cleavage kobs at 640 uM GlcN6P [3]: < 1e-05 s⁻¹
- self-cleavage kobs at 2500 uM GlcN6P [5]: < 1e-05 s⁻¹

Variant: C34A U47A
- self-cleavage kobs at 40 uM GlcN6P [1]: < 1e-05 s⁻¹

Variant: G60C G62U
- self-cleavage kobs at 40 uM GlcN6P [1]: < 1e-05 s⁻¹
- self-cleavage kobs at 160 uM GlcN6P [2]: < 1e-05 s⁻¹
- self-cleavage kobs at 2500 uM GlcN6P [5]: < 1e-05 s⁻¹
- self-cleavage kobs at 10000 uM GlcN6P [4]: < 1e-05 s⁻¹

Variant: A52C G60C
- self-cleavage kobs at 40 uM GlcN6P [1]: < 1e-05 s⁻¹
- self-cleavage kobs at 160 uM GlcN6P [2]: < 1e-05 s⁻¹
- self-cleavage kobs at 640 uM GlcN6P [3]: < 1e-05 s⁻¹
- self-cleavage kobs at 2500 uM GlcN6P [5]: < 1e-05 s⁻¹
- self-cleavage kobs at 10000 uM GlcN6P [4]: < 1e-05 s⁻¹

Variant: G60A C61G
- self-cleavage kobs at 40 uM GlcN6P [1]: < 1e-05 s⁻¹
- self-cleavage kobs at 2500 uM GlcN6P [5]: < 1e-05 s⁻¹
- self-cleavage kobs at 10000 uM GlcN6P [4]: < 1e-05 s⁻¹

Variant: A33U G37C
- self-cleavage kobs at 40 uM GlcN6P [1]: < 1e-05 s⁻¹
- self-cleavage kobs at 160 uM GlcN6P [2]: < 1e-05 s⁻¹
- self-cleavage kobs at 10000 uM GlcN6P [4]: < 1e-05 s⁻¹

Variant: G37U G63A
- self-cleavage kobs at 40 uM GlcN6P [1]: < 1e-05 s⁻¹
- self-cleavage kobs at 160 uM GlcN6P [2]: < 1e-05 s⁻¹
- self-cleavage kobs at 640 uM GlcN6P [3]: < 1e-05 s⁻¹
- self-cleavage kobs at 2500 uM GlcN6P [5]: < 1e-05 s⁻¹
- self-cleavage kobs at 10000 uM GlcN6P [4]: < 1e-05 s⁻¹

Variant: U45C U54G
- self-cleavage kobs at 40 uM GlcN6P [1]: 3.96e-05 ± 1.3e-05 s⁻¹
- self-cleavage kobs at 160 uM GlcN6P [2]: 0.000199 ± 3.9e-05 s⁻¹
- self-cleavage kobs at 640 uM GlcN6P [3]: 0.00067 ± 0.00015 s⁻¹
- self-cleavage kobs at 2500 uM GlcN6P [5]: 0.000454 ± 0.00018 s⁻¹
- self-cleavage kobs at 10000 uM GlcN6P [4]: 0.00305 ± 0.00064 s⁻¹

Variant: G7U G38U C71A
- self-cleavage kobs at 40 uM GlcN6P [1]: < 1e-05 s⁻¹
- self-cleavage kobs at 10000 uM GlcN6P [4]: < 1e-05 s⁻¹

Variant: C58G G59U
- self-cleavage kobs at 40 uM GlcN6P [1]: < 1e-05 s⁻¹
- self-cleavage kobs at 160 uM GlcN6P [2]: < 1e-05 s⁻¹
- self-cleavage kobs at 640 uM GlcN6P [3]: < 1e-05 s⁻¹
- self-cleavage kobs at 2500 uM GlcN6P [5]: < 1e-05 s⁻¹
- self-cleavage kobs at 10000 uM GlcN6P [4]: < 1e-05 s⁻¹

Variant: G7U G13A A15U U31G U49G C67A
- self-cleavage kobs at 40 uM GlcN6P [1]: < 1e-05 s⁻¹

Variant: A48C C61U C67G
- self-cleavage kobs at 40 uM GlcN6P [1]: < 1e-05 s⁻¹
- self-cleavage kobs at 640 uM GlcN6P [3]: < 1e-05 s⁻¹
- self-cleavage kobs at 10000 uM GlcN6P [4]: < 1e-05 s⁻¹
